This passage reports Specific Binding (CXCR1-Cell median AFU / Parental Cell median AFU), CXCR1/Parental Ratio and CXCR1 specificity (CXCR1/parental ratio) results from patent US20230287598A1.

Positions count from the first letter of the chain named. In names and notes the source's numbering stands.

The target in test [1] is CXCR1 (UniProt P25024). The test is described as follows: flow cytometry, supernatant at 5 nM IgG. In general terms: Flow cytometry measures light scatter and fluorescence of single cells or particles in a stream.
Chain of CXCR1 (P25024 whole entry): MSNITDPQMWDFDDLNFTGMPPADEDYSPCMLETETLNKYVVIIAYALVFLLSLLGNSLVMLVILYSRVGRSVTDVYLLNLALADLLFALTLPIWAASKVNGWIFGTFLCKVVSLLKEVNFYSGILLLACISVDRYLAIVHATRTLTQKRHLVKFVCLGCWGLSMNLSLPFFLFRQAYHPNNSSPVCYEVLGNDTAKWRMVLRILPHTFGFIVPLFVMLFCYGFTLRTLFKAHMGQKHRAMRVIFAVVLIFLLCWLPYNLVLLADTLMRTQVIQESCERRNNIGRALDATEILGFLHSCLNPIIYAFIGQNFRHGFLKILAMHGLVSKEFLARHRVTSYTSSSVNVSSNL
The target in test [2] is CXCR1 (UniProt P25024). The test is described as follows: flow cytometry, CXCR1-U2OS / parental U2OS.
The target of test [3] is CXCR1 (UniProt P25024). The test is described as follows: flow cytometry, 10 nM IgG, 2 ug/ml heparin sulfate, CXCR1-U2OS / parental U2OS.

B1: VH4-34+CDR3-IL8_CDR1-Cow_CDR2-E50S_Q5RQ6E / VL1-51 S2A, T5N, P8S, A12G, A13S, P14L, K46R, L47T, D51G, N52D, N53T IgG (antibody)
VH: QVQLREWGAGLLKPSETLSLTCTASGFSLSDKAVGWIRQPPGKGLEWIGSINHSGSTNYNPSLKSRVTISVDTSKNQFSLKLSSVTAADTAVYYCTSVHQETKKYQSPRSAKELRCQCIKTYSKPFHPKFIKELRVIESGPHCANTEIIVKLSDGRELCLDPKENWVQRVVEKFLKRAENSGSGSYTYNYEWHVDVWGQGLLVTVSS
light: QAVLNQPSSVSGSLGQKVTISCSGSSSNIGNNYVSWYQQLPGTAPRTLIYGDTKRPSGIPDRFSGSKSGTSATLGITGLQTGDEADYYCASAEDSSSNAVFGSGTTLTVLGQPKAAPSVTLFPPSSEELQANKATLVCLISDFYPGAVTVAWKADSSPVKAGVETTTPSKQSNNKYAASSYLSLTPEQWKSHRSYSCQVTHEGSTVEKTVAPTECS
As to B1, the Specific Binding (CXCR1-Cell median AFU / Parental Cell median AFU) with CXCR1 [1] worked out at 2.

B2: VH4-34+CDR3-IL8_CDR2 E50S / VL1-51 S2A, T5N, P8S, A12G, A13S, P14L, D51G, N52D, N53T IgG (antibody)
VH: QVQLQQWGAGLLKPSETLSLTCAVYGGSFSGYYWSWIRQPPGKGLEWIGSINHSGSTNYNPSLKSRVTISVDTSKNQFSLKLSSVTAADTAVYYCTSVHQETKKYQSPRSAKELRCQCIKTYSKPFHPKFIKELRVIESGPHCANTEIIVKLSDGRELCLDPKENWVQRVVEKFLKRAENSGSGSYTYNYEWHVDVWGQGLLVTVSSAS
light: B1 light with R46K, T47L
With B2, in the test with CXCR1 [1], the Specific Binding (CXCR1-Cell median AFU / Parental Cell median AFU) is 2.

B3: VH4-34+CDR3-IL8_CDR1 Cow_CDR2 Cow / V1-47 IgG (antibody, part only; not given: V1-47 light chain, part only)
VH: QVQLQQWGAGLLKPSETLSLTCTASGFSLSDKAVGWIRQPPGKGLEWLGSIDTGGNTGYNPSLKSRVTISVDTSKNQFSLKLSSVTAADTAVYYCTSVHQETKKYQSPRSAKELRCQCIKTYSKPFHPKFIKELRVIESGPHCANTEIIVKLSDGRELCLDPKENWVQRVVEKFLKRAENSGSGSYTYNYEWHVDVWGQGLLVTVSSAS
Take B3: in the test with CXCR1 [2], the CXCR1/Parental Ratio amounted to 4.6.

B4: VH4-34+CDR3-IL8_CDR1 G31D,Y32K / V1-47 IgG (antibody, part only; not given: V1-47 light chain, part only)
VH: B2 VH with G31D, Y32K, S50E
On to B4, for which, in the test with CXCR1 [2], the CXCR1/Parental Ratio amounted to 3.6.

B5: VH4-34+CDR3-IL8_CDR1 G31D,Y32K_CDR2 E50S / V1-51 IgG (antibody, part only; not given: V1-51 light chain, part only)
VH: B2 VH with G31D, Y32K
On to B5, for which the CXCR1/Parental Ratio with CXCR1 [2] was determined as 3.

B6: VH4-34+CDR3-IL8_CDR2 E50S / V1-51 IgG (antibody, part only; not given: V1-51 light chain, part only)
VH: B2 VH
For B6, the CXCR1/Parental Ratio with CXCR1 [2] was found to be 1.8.

B7: VH4-34+CDR3-IL8_CDR2 E50S / V1-47 IgG (antibody, part only; not given: V1-47 light chain, part only)
VH: B2 VH
Regarding B7, the CXCR1/Parental Ratio in the test with CXCR1 [2] amounted to 3.3.

B8: VH4-34+CDR3-IL8 / V1-47 IgG (antibody, part only; not given: V1-47 light chain, part only)
VH: B2 VH with S50E
Consider B8, for which the CXCR1/Parental Ratio with CXCR1 [2] was determined as 2.6.

B9: VH4-34+CDR3-IL8_CDR1 G31D,Y32K / V1-51 IgG (antibody, part only)
heavy: B2 VH with G31D, Y32K, S50E
light: QSVLTQPPSVSAAPGQKVTISCSGSSSNIGNNYVSWYQQLPGTAPKLLIYDNNKRPSGIPDRFSGSKSGTSATLGITGLQTGDEADYYCASAEDSSSNAVFGSGTTLTVLGQPKAAPSVTLFPPSSEELQANKATLVCLISDFYPGAVTVAWKADSSPVKAGVETTTPSKQSNNKYAASSYLSLTPEQWKSHRSYSCQVTHEGSTVEKTVAPTECS
On to B9, for which the CXCR1/Parental Ratio in the test with CXCR1 [2] worked out at 3.

B10: VH4-34+CDR3-IL8_CDR2 Cow / V1-47 IgG (antibody, part only; not given: V1-47 light chain, part only)
VH: B2 VH with I48L, N52D, H53T, S54G, S56N, N58G
As for B10, the CXCR1/Parental Ratio with CXCR1 [2] stood at 2.5.

B11: VH4-34+CDR3-IL8 / V1-51 IgG (antibody, part only; not given: V1-51 light chain, part only)
VH: B2 VH with S50E
As for B11, the CXCR1/Parental Ratio with CXCR1 [2] was determined as 2.9.

B12: VH4-34+CDR3-IL8_CDR1 Cow / V1-47 IgG (antibody, part only; not given: V1-47 light chain, part only)
VH: B3 VH with L48I, S50E, D52N, T53H, G54S, N56S, G58N
For B12, in the test with CXCR1 [2], the CXCR1/Parental Ratio was 5.1.

B13: VH4-34+CDR3-IL8_CDR1 Cow_CDR2 E50S / V1-47 IgG (antibody, part only; not given: V1-47 light chain, part only)
VH: B3 VH with L48I, D52N, T53H, G54S, N56S, G58N
With B13, in the test with CXCR1 [2], the CXCR1/Parental Ratio came out at 2.6.

B14: VH4-34+CDR3-IL8_CDR1 Cow_CDR2 E50S / V1-51 IgG (antibody, part only; not given: V1-51 light chain, part only)
VH: B3 VH with L48I, D52N, T53H, G54S, N56S, G58N
For B14, the CXCR1/Parental Ratio with CXCR1 [2] was 3.1.

B15: VH4-34+CDR3-IL8_CDR1 Cow / V1-51 IgG (antibody, part only)
heavy: B3 VH with L48I, S50E, D52N, T53H, G54S, N56S, G58N
light: B9 light
For the molecule B15, the CXCR1/Parental Ratio in the test with CXCR1 [2] turned out to be 2.4. For the same molecule, the CXCR1 specificity (CXCR1/parental ratio) with CXCR1 [3] came out at 7.2.

B16: VH4-34+CDR3-IL8_CDR1 G31D,Y32K_CDR2 E50S / V1-47 IgG (antibody, part only; not given: V1-47 light chain, part only)
VH: B2 VH with G31D, Y32K
In the case of B16, the CXCR1/Parental Ratio with CXCR1 [2] came out at 1.4.

B17: VH4-34+CDR3-IL8_CDR2 Cow / V1-51 IgG (antibody, part only; not given: V1-51 light chain, part only)
VH: B2 VH with I48L, N52D, H53T, S54G, S56N, N58G
As for B17, the CXCR1/Parental Ratio in the test with CXCR1 [2] was 3.9.
